Measurements reported in patent US20090053138.

What was measured:
[1] = tested on: T1, VEGF (Homo sapiens ?), P15692-4; assay: FP filter; details: nitrocellulose dot blot
T1 sequence: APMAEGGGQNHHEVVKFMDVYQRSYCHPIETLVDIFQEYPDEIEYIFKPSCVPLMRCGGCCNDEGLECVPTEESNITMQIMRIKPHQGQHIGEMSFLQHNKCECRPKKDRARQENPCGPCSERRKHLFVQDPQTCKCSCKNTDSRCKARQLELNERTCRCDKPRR

PDGF-AB (Homo sapiens) = PDGF-AB (Homo sapiens) (UniProt P04085+P01127); assay: competition; details: DNA with s1 fU6 fC8 mG9; s2 mG5 mG7 fU10 fC11 mA12; s3 fC5 fC6 fU7 mG8 (f=2'-F, m=2'-OMe); HEG spacers between segments; 3'-inverted dT; dot blot; p348 prints uM, legend prints pM
Sequence of PDGF-AB (Homo sapiens) (P01127 82-190, chain 2 of 2, other chains not shown): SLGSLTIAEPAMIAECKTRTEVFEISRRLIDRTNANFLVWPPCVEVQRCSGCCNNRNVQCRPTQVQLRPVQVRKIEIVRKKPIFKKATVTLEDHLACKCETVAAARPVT

[2] = target: PDGF-BB (Rattus norvegicus) (UniProt Q05028); assay: competition; details: DNA with s1 fU6 fC8 mG9; s2 mG5 mG7 fU10 fC11 mA12; s3 fC5 fC6 fU7 mG8 (f=2'-F, m=2'-OMe); HEG spacers between segments; 3'-inverted dT; equal affinity to …
Sequence of PDGF-BB (Rattus norvegicus) (Q05028 74-182): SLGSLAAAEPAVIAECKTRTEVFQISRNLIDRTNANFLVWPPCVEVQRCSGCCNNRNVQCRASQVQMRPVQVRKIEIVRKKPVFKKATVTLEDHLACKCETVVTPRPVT

[3] = tested on: PDGF-AA (Homo sapiens), P04085-2; assay: competition; details: PEG-conjugated ARC513 (PEG size per image, not given); 2'-OMe as ARC513; PEG spacers; figure legend states no binding to PDGF-AA

AUGCAGUUUGAGAAGUCGCGCAU [ARC245]
Kd ([1]; all 2'-OMe): 2 nM

CAGGCTACGAUGCAGUUUGAGAAGUCGCGCAUCGTAGAGCATCAGAAATGATCCTG [TK.131.012.A]
Kd ([1]; ARC126 part deoxy, ARC245 part 2'-OMe, dGdAdAdA linker): 10 nM

CAGGCTACGUGCAGUUUGAGAAGUCGCGCACGTAGAGCATCAGAAATGATCCTG [TK.131.012.B]
Kd ([1]; ARC126 part deoxy, ARC245 part 2'-OMe (first mA-mU pair removed), dGdAdAdA linker): 5 nM

CAGGCUACGCGTAGAGCAUCATGATCCUG [ARC126]
Kd (PDGF-AB (Homo sapiens)): 0.0001 µM
Kd [2]: 0.1 nM

CCCAGGCTACGCGTAGAGCAUCATGATCCTGGG [ARC594 (AX102)]
Kd [3]: 2.6 nM
